These results are taken from patent publication US20150160235A1 (Takeda / Millennium, published 2015).

The assay deals with T1, oxMIF (oxidized macrophage migration inhibitory factor) in human tissue cryosections (human, UniProt P14174 2-115).
T1 construct: mature; Native oxMIF isoform in unfixed, air-dried cryosections of patient tissue (kidney, pancreas, breast, brain, lung, colon); also called oxidized MIF
The assay is described as follows: IHC, biotinylated RAM9 5 µg/ml on unfixed kidney cryosections, streptavidin-HRP/DAB. The procedure: The kidney tissue slides were prepared according to state of the art techniques known to experts, either fresh frozen or OCT embedded, sectioned at 10 μm and stored at <=−80° C. after sectioning. All following steps were done at ambient temperature. The cryo-sections were air dried for 30 min and unspecific binding was blocked with blocking buffer (20% Normal Goat Serum/2% Bovine Serum Albumin/0.2% Fish Gelatine in TBS) for 30 min. The sections were then incubated with a primary, preferably biotinylated, anti-oxMIF Antibody (biotinylated-RAM9) in primary antibody dilution buffer (2% Bovine Serum Albumin/0.2% Fish Gelatine in TBS) at a concentration of 5 μg/ml for 60 min. After washing in TBS, the specimen was fixed in 4% PBS buffered formaldehyde for 15-20 min. Excess formaldehyde was removed by washing in TBS for 10 min. The staining was done using VECTASTAIN Elite ABC Reagent (HRP conjugated Streptavidin) for 30 min. Then the sections were extensively washed again 10 min in TBS. By using ImmPACT DAB Substrate for 10 minutes the staining was visualized as a brown color, which is reflected in FIG. 1A by a dark grey. The slides were washed in TBS and the nuclei were counterstained with Haematoxylin for 1-2 min. By washing the slides in tap water the color of the counter stain changes from violet to blue. […]

T1 sequence (P14174 2-115): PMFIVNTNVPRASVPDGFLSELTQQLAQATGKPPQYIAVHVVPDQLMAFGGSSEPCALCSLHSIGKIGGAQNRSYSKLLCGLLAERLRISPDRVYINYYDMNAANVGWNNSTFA

B1: anti-oxMIF antibody RAM9 (antibody, V domains shown)
VH: EVQLLESGGGLVQPGGSLRLSCAASGFTFSIYSMNWVRQAPGKGLEWVSSIGSSGGTTYYADSVKGRFTISRDNSKNTLYLQMNSLRAEDTAVYYCAGSQWLYGMDVWGQGTTVTVSS
VL: DIQMTQSPSSLSASVGDRVTITCRSSQRIMTYLNWYQQKPGKAPKLLIFVASHSQSGVPSRFRGSGSETDFTLTISGLQPEDSATYYCQQSFWTPLTFGGGTKVEIKR
notes: also called biotinylated-RAM9
Regarding B1, the binding result is “binds”.
